The assay concerns the target GST-tagged human EZH2 (human, UniProt Q15910-2 1-751). In words: pull-down.

B1: 6×His-tagged human DDX1 (natural protein, UniProt Q92499-1 1-740, looked up)
chain: MAAFSEMGVMPEIAQAVEEMDWLLPTDIQAESIPLILGGGDVLMAAETGSGKTGAFSIPVIQIVYETLKDQQEGKKGKTTIKTGASVLNKWQMNPYDRGSAFAIGSDGLCCQSREVKEWHGCRATKGLMKGKHYYEVSCHDQGLCRVGWSTMQASLDLGTDKFGFGFGGTGKKSHNKQFDNYGEEFTMHDTIGCYLDIDKGHVKFSKNGKDLGLAFEIPPHMKNQALFPACVLKNAELKFNFGEEEFKFPPKDGFVALSKAPDGYIVKSQHSGNAQVTQTKFLPNAPKALIVEPSRELAEQTLNNIKQFKKYIDNPKLRELLIIGGVAARDQLSVLENGVDIVVGTPGRLDDLVSTGKLNLSQVRFLVLDEADGLLSQGYSDFINRMHNQIPQVTSDGKRLQVIVCSATLHSFDVKKLSEKIMHFPTWVDLKGEDSVPDTVHHVVVPVNPKTDRLWERLGKSHIRTDDVHAKDNTRPGANSPEMWSEAIKILKGEYAVRAIKEHKMDQAIIFCRTKIDCDNLEQYFIQQGGGPDKKGHQFSCVCLHGDRKPHERKQNLERFKKGDVRFLICTDVAARGIDIHGVPYVINVTLPDEKQNYVHRIGRVGRAERMGLAISLVATEKEKVWYHVCSSRGKGCYNTRLKEDGGCTIWYNEMQLLSEIEEHLNCTISQVEPDIKVPVDEFDGKVTYGQKRAAGGGSYKGHVDILAPTVQELAALEKEAQTSFLHLGYLPNQLFRTF
Consider B1, for which the binding result was “binds”.

For the origin of these results see publication PMC12229552 (Nature Communications, 2025).
